Measurements published in patent US20210095032A1 (SALUBRIS CHENGDU BIOTECH, published 2021).

Target: T1, biotin-labeled human PD-1 Fc protein (human, biotin-labeled (site not stated))
T1 construct: also called PD-1-Fc-biotin
Test: capture ELISA

T1 sequence (chain, as listed by the source limits assumed): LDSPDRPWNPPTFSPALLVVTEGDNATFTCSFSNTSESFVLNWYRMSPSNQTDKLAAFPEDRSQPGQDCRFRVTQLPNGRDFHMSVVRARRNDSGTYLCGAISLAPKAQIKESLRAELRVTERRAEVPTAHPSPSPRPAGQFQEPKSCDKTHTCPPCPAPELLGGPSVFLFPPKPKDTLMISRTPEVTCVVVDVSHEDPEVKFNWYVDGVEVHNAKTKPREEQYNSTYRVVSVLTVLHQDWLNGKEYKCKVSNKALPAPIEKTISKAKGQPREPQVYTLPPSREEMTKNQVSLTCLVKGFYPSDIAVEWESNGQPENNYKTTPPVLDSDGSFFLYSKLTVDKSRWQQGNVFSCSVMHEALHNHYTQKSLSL

- binding result: binds
B1: huD2H3-V13 (antibody, human IgG1, kappa, V domains shown)
VH: EVQLVQSGAEVKKPGSSVKVSCKSSGYTFTNYWMHWVRQAPGQGLEWIGAIFPRNSETNYNQKFKARATLTADTSTSTAYMELSSLRSEDTAVYFCTRNRYGLDYWGQGTLVTVSS
VL: DIVMTQSPDSLAVSLGERATINCRASESVSLHGTRLMHWYQQKPGQPPKLLIYLGSNLESGVPDRFSGSGSGTDFTLTISSLQAEDVAVYYCQQSIEDPWTFGQGTKLEIKR
notes: Humanized D2H3, human IgG1/kappa; No EC50 is printed for this variant; it appears only in the sentences about the group
